# Test: soluble on expression in E. coli; label from the status in PepcDB or PDB records
row,Sequence,soluble on expression in E. coli
1,MKAFDQVNHSLLLQKLHDFGINPLFCNWFHDFLSSRTFSVKVNNHIDPNIHPISSGVPKGSVSGPFLFLIFINSLLLSVPPSISCSAFADDLKVYSHSPPLIQTTIDLITTWSENNKLPLAVHKAALLNKLGFSSNCVLLLAPLINSLVCRLLAASRTGVSTVAHSKTCLLHLGKKNPKTVYKINNLPISPSNIARDLGILTDSKLTFKPHIKKIVSLALLRCKQLLKSFKSLCPEFYCNLFKTYILPLIEYGSAVYSPKPSSSLSTLLEKPLRWYSQKVLQKFNVSYSLYNDRLKSLNLHSIRHRRLKSKLILLYKFCCGTSFLRRKETFFKLSTSSRRPMRIICHNPSSNNFFSDTISFWNAITNNCDTFLSPIHFENLVDNSITRL,not soluble
2,MKAHHILKVTKQYNPTEDLEFNPDLDGELVAGADNLPSVEIQVEKIADRQRQITARVQIPQPVEQVWQVLTNYEALADFIPNLAKSSLLEHPNGGIRLEQVGSQRLLNFKFCARVVLDLEEYFPKEINFQMVEGDFKGFSGNWCLQPYALGNVIGTDLCYTIQVWPKLTMPITIIERRLSQDLRSNLLAIYQRVECLANQSLLEHHHHHH,soluble
3,MKAKTLIDAYEAFCPLDLSMEGDVKGLQMGSLDKDIRKVMITLDIRESTVAEAIKNEVDLIITKHAPIFKPLKDLVSSPQRDILLDLVKHDISVYVSHTNIDIVPGGLNDWFCDLLEIKEATYLSETKEGFGIGRIGTVKEQALEELASKVKRVFDLDTVRLIRYDKENPLISKIAICGGSGGEFYQDAVQKGADVYITGDIYYHTAQEMLTEGLFAVDPGHHIEVLFTEKLKEKLQGWKEENGWDVSIISSKASTNPFSHL,not soluble
4,MKALTARQQEVFDLIRDHISQTGMPPTRAEIAQRLGFRSPNAAEEHLKALARKGVIEIVSGASRGIRLLQEEEEGLPLVGRVAADEPLLAQQHIEGHYQVDPSLFKPNADFLLRVSGMSMKDIGIMDGDLLAVHKTQDVRNGQVVVARIDDEVTVKRLKKQGNKVELLPENSEFKPIVVDLRQQSFTIEGLAVGVIRNGDWL,soluble
5,MKAPSYHVVRGDIATATEGVIINAANSKGQPGGGVCGALYKKFPESFDLQPIEVGKARLVKGAAKHIIHAVGPNFNKVSEVEGDKQLAEAYESIAKIVNDNNYKSVAIPLLSTGIFSGNKDRLTQSLNHLLTALDTTDADVAIYCRDKKWEMTLKEAVARREHHHHHH,soluble
6,MKAPVRVAVTGAAGQIGYSLLFRIAAGEMLGKDQPVILQLLEIPQAMKALEGVVMELEDCAFPLLAGLEATDDPKVAFKDADYALLVGAAPRKAGMERRDLLQVNGKIFTEQGRALAEVAKKDVKVLVVGNPANTNALIAYKNAPGLNPRNFTAMTRLDHNRAKAQLAKKTGTGVDRIRRMTVWGNHSSTMFPDLFHAEVDGRPALELVDMEWYEKVFIPTVAQRGAAIIQARGASSAASAANAAIEHIRDWALGTPEGDWVSMAVPSQGEYGIPEGIVYSFPVTAKDGAYRVVEGLEINEFARKRMEITAQELLDEMEQVKALGLI,soluble
7,MKARKAKEFVFNDLLSMESYCINHYSDYYSKSNFSCNVTQLSKGELVTSSICAPINDAHLEIFKSNQTILYEEEANQNSVAFCWINSNGEQAQTNTIISGHKMMDLSIAGFNRLNKTGGNVWDIVGANTQLCCMSLKWEKVKEKINQMNAYNAFAKLEECIGIDSNSSASIQLKSLFERHFTKGLRESEAFYDLAIATLEEPCDLEILTERSDKTELIEDLVKLLYEDREGMPPLTISEITKYLNTEKESLSIACRTNFDMPILDLIKSIRLEQVKKSYLNPHVPKGLKNFTKKQNALYYGFKNWTTFQKFYHQSFQESPDETINKSSKASVLVTDLFTRRS,not soluble
8,MKARSKKSVGIVALALLMGKVYAAPTPAACPDVSVIKQHQEGQGFVYTAPAPNNQQWRGENPRGDAKDINSIAFKSANIRNRSAITGNAFVACDYEGNSSAGIRMSLETLKVATPVGKAWNGLSCSESNPSACTFEY,not soluble
9,MKAVIFIMDGLGDRPNKDGNTPLKEAKTPVMDKMAKDGICGLMNAVDVGVRPGSDTAHLAILGYDPYTTYTGRGPFEACGVGVTVKPGDIAFRCNFSSVNENFIVTDRRAGRIEDTSELEKELDGLKIDDIDIIFKESGGYRAALVLRGPGLSDKISDADPKKEGKRVKEIHPLDNSKEAKKTAEIVNKLLKIAYEKLDKHPVNEERRKQNLPVANMIVPRGVGQVPEIMQFSEKTGLKGACIAGTGLIKGIAKMVGLDVIDVEGCDGTPNSDLMAKACAIVETLKDYDFILVNVKGADEAGHDGNYELKKEIIEKIDEMLDYITKNIDKDEVYIAMSGDHSTPIEEMDHSADPLPILIWGKSVRVDDVEKFDEFSTYKGGLNWIKGTNIMPILMDLMSIAKKYGA,not soluble
10,MKCGLEIHVQLDTRSKLFCRCPTDYQEAPPNTNICPVCLNQPGAKPYPPNRSALEGALKIALMLDCRINPEITYFMRKHYNYPDLPSGYQRTSIPVGLEGELNGVRIREVHIEEDPGQYKPDQGTVDFNRSGIPLIEIVTEPDMTSPEEARNFLRELIRVLEYSGCARGEGTMRADVNISLEGGKRVEIKNINSIKGAYKALKFEMIRQKNLLKRGVEVKQETRAFLESQMITVSMRLKEEAEDYRYIPDPDLPPMKFTDEVVEGLRERIPEAPHLKVKRFMEEYGLREEDARVLTSELELADAFEEVAGSIDPEFAALWMRDELKRVLYYNKISFAESMITPGDIIELLAMIRKKEITSKAAKKIIEEMPLNKKGPREIATEMGLIGIIDESEVIRAVEQAIRENPGAVEDYHAGKEAAINFLVGQVMRMTRGKAEPERTVELIKERI,soluble
11,MKCSKCQAEAIYFAKYNGLYLCREHFNDMIEKRVKSEIRNQVDLKKPMVRISVAISGGKDSSVTLYLLHKILSKRRNVELTAFTVDEGISGYRPAGLESAIKLTKMLGVDHSIIRFQDSFGMTLDSIVGADASRIPCSYCGPLRRKLINEMAERQNADYVALGLNLDDYSQSILMNVAKGDYDRLLRMSPQKEAKDGLVRRIAPLRSVLEKEVVLYAVINGIPFDSSWCPYYSRAQRNIFREVVNTLSEYNPSTKFSILKFFERARSDVQRNDKALGRCRICGAPTENDVCSACAAMESLRNERKASESELHAR,not soluble
12,MKDLIKVQQKLIPDLIDKMYRRFYILSTISQNQPVGRRSLSEHMDMTERVLRSETDMLKKQELIRVKPTGMEITNEGTEVLAQLGEYFNVYSDDHKLASAIKDKFHIKDVHVIPGDSDSNRTVKREMGQQAGQLLEGILYEDAIVSVTGGSTMACVSESIHLLPFNVFFVPARGGLGENVVYQANTIASSMAQQAGGYYTTLYVPDNVSESTYDTLMLEPSVMHTLDKIKQANITIHGIGDALKMAHRRQSSQNVIDNLQHHQAVGEAFGYYFDAQGQIVHKVKTIGLQLEDLENKDFIFAVAGGQSKGEAIKAYLSIAPENTVLITDEAAAKVILQ,not soluble
13,MKDSALTLKRVRIGKFSESMVEERPTLNLFEKVEFNPVPTALVDQLPTEPLVEATLLEKEAITFVDTYATSEAHDQIATFVLEQSMETEVVEKEAIETAIVAPAPDLVEEKAVLVEEVLVEPTATEAVTTEENQVSTTSVTKIKTKRSNTKKVTSETLVASKSVKTKKLITPNRVSSGNVNITLWQVDKKSTNLTKTKTDLFGKKHQFKGPQLISYKK,soluble
14,MKDVSKNQEENISDTALTNELIHLLGHSRHDWMNKLQLIKGNLSLQKYDRVFEMIEEMVIDAKHESKLSNLKTPHLAFDFLTFNWKTHYMTLEYEVLGEIKDLSAYDQKLAKLMRKLFHLFDQAVSRESENHLTVSLQTDHPDRQLILYLDFHGAFADPSAFDDIRQNGYEDVDIMRFEITSHECLIEIGLD,soluble
15,MKEDWPEPVKEYNTGQVLFDRLELTRTNEEENLAVWDMIAWYGGDYHRAVFKSEGENVQDDGEPTDLERAELLYGYLVSPFWSFQAGIGTRGTLSSDASMENYAVVSFMGLAPYWFEMDNSLMVNEEGDVQFVSETEYEWQLTQTSYLQPRIELTANLTDSDKYERQSGLSNLRVGLRYRHEISREFAPYIGVYWNGALGNTADEMKRMGKDTTETGVVLGARVWFLEHHHHHH,not soluble
16,MKEKGGDSLKYCYQCGLCDSVCPWNRVRQFSMRKIVRQGTFGLTEIEQEDIWRCSTCGTCPSRCPRGVNQIEAGVAMRRIGAEYDVYPGHVGTIRNVVASLTSEGNSLEHHHHHH,not soluble
17,MKEKIPFYNEKEFHDMVKKTKKGTFSGWYIINKNNNSVEFSGSFNRQFKLNKPVIPVNTEYVTRKEFNEYKDSNDQRLTKIETELKSQGQRIQVVEDKVDRLTEVVMVQSQQIKTQGEAMNARMDRFESLVLKSLESIGNTLTDFGKRLDVIETRLDKIDPPKLEHHHHHH,not soluble
18,MKEKVIVIGGGLAGSEAAWRLANEGHRVILYEMRPKKMTPAHKTGNLAELVCSNTLGGLELTTGAGLLKAEMQKLGSLVIEAAKVARVPAGGALGVDRKIFSEYITEKIESHPNITLIREEVKEIPEDEVVVIATGPLTSDALSEKIKELVGYDTLYFYDAIAPIVEAESVDFSKGFWGSRYGKGGDDYFNCVLTEEEYKKFYEELLKAEKVKPKDFEKAVHFEGCLPIEEMAERGYKTLLFGPMKPVGLVDPRTGKEPFAVVQLRKENKEGTLLSLVGFQTKLTYKEQKRVFRLIPCLRNAVFVRLGSMHRNTFIQSNKVLTHYLNLKKKENIFFAGQITGVEGYVASSATGILAGINAGRLARGEKPLKAPTETMLGALVNYIVTKEGELQPMNPVFGLLPPLEKKVRDKKKRKELMAKRALETMEKWIKENNLVPEGLVKVC,soluble
19,MKELVVVAIGGNSIIKDNASQSIEHQAEAVKAVADTVLEMLASDYDIVLTHGNGPQVGLDLRRAEIAHKREGLPLTPLANCVADTQGGIGYLIQQALNNRLARHGEKKAVTVVTQVEVDKNDPGFAHPTKPIGAFFSDSQRDELQKANPDWCFVEDAGRGYRRVVASPEPKRIVEAPAIKALIQQGFVVIGAGGGGIPVVRTDAGDYQSVDAVIDKDLSTALLAREIHADILVITTGVEKVCIHFGKPQQQALDRVDIATMTRYMQEGHFPPGSMLPKIIASLTFLEQGGKEVIITTPECLPAALRGETGTHIIKT,soluble
20,MKENIEKLFQAIAQKNPIHSKYLKKIEFSQEDEEEFDKLISYYIQDGISIKEQCDCYLLILNDTLEETKFFIENGAYRYSSFDEVKDKVYFNESYMKQYMIGLALSSFVWIAHIKVRKYFSQYLQNFTPKTTYFEIGPGHGEYFARAVKSGKFSAFYGLDISPTSCELTQKMVKQQVGGLITKCDFLCQDFFTYDFDKKADLIVIGEVLEHVEKPLEFLKRSKELLSDGGEIFATIPINAPAIDHIYLFSHPDEVKDLIEKSGLKFKAYECFMANDYSLEKALKFKNAITMAVVLNALEHHHHHH,soluble

# Reference: the DeepSol protein solubility set
